Source: PMC3483115

Biological target: TRPV1-CT44 (TRPV1 C-terminal residues 759–802) (rat) (UniProt O35433)
Experiment: other fluorescence titration

Sequence of TRPV1-CT44 (TRPV1 C-terminal residues 759–802) (rat) (O35433 759-802): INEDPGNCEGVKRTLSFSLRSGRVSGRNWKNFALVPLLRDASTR

calmodulin (CaM), wild type (from UniProt P0DP23 1-149) (natural protein)
stoichiometry N: 1
